In US7888090B2, “Mutants of O6-alkylguanine-DNA alkyltransferase” (Ecole Polytechnique Federale de Lausanne, priority 2004, dated 2011):
Substitutions are numbered along the chain they refer to. “Also recorded” adds a separate entry of the source.

B1: Gly131Lys, Gly132Thr, Met134Leu, Arg135Ser, Asn157Gly, Ser159Glu: hAGT mutant with the listed mutations, selected by phage display (protein, UniProt P16455 1-207, looked up, variant G131K G132T M134L R135S N157G S159E)
Methylated-DNA--protein-cystei …: MDKDCEMKRTTLDSPLGKLELSGCEQGLHEIKLLGKGTSAADAVEVPAPAAVLGGPEPLMQCTAWLNAYFHQPEAIEEFPVPALHHPVFQQESFTRQVLWKLLKVVKFGEVISYQQLAALAGNPKAARAVKTALSGNPVPILIPCHRVVCSSGAVGGYEGGLAVKEWLLAHEGHRLGKPGLGGSSGLAGAWLKGAGATSGSPPAGRN
B2: Gln115Ser, Gln116His, Cys150Asn, Ser151Ile, Ser152Asn, Asn157Gly, Ser159Glu: hAGT mutant with the listed mutations, selected by phage display (protein, UniProt P16455 1-207, looked up, variant Q115S Q116H C150N S151I S152N N157G S159E)
Methylated-DNA--protein-cystei …: B1 Methylated-DNA--protein-cystei … with Q115S, Q116H, K131G, T132G, L134M, S135R, C150N, S151I, S152N

Columns and labels:
[1] = Reaction of two AGT variants in one sample with CPTG and BG-Bt; assay type: biochemical; conditions: versus His-tagged AGTM
Description: FIG. 2: Western blot of the reaction of wild type hAGT (GST-hAGT fusion protein) and AGTM with the two substrates N^9-cyclopentyl-O^6-bromophenyl-guanine (CPTG) and biotinylated O^6-benzylguanine (BG-Bt, substance 3a of Juillerat et al. 2003) as described in Example 7. BG-Bt is present in all samples at 5 μM. Detection with neutravidin-peroxidase conjugate and luminescent peroxidase substrate detecting any AGT reacted with BG-Bt. Even under simultaneous incubation with identical concentrations of CPTG and BG-Bt only about 5% of GST-hAGT reacts with substrate BG-Bt.
Within the experiment two tags with different size for the two AGT proteins are used: The His-tagged AGTM (˜20 kDa) and GST-hAGT (cloned and prepared as described in Example 1, but starting with the wild type hAGT gene, ˜48 kDa) are diluted to 0.2 μM and 1.2 μM final concentration, respectively, in reaction buffer containing 50 mM HEPES, 1 mM DTT, 200 mg/mL BSA (pH 7.3). The sample is incubated with a mixture of substrates N^9-cyclopentyl-O^6-bromophenyl-guanine (CPTG; 0, 5 and 10 μM final concentrations) and biotinylated O^6-benzylguanine (BG-Bt, 5 μM final concentration) for 30 minutes. The reaction is quenched by addition of SDS-Laemmli buffer and subjected to Western blotting analysis (Example 1). As the two AGT variants have different masses, the two proteins can be separated on an acrylamide gel and analyzed independently. […] At the same concentration (both substrates at 5 μM final concentration), 95% of GST-hAGT reacts with CPTG, versus only 5% of His-tagged AGTM.

[2] = Activity assay with biotinylated O^6-benzylguanine (BG-Bt), Western blotting; assay type: biochemical; conditions: statement in words
Description: Activity towards O^6-benzylguanine substrates is measured as described by Juillerat et al., Chem Biol 10:313-317, 2003.
Activity assay: Purified mutated GST-AGT is incubated in vitro with a biotinylated O^6-benzylguanine (BG-Bt, substance 3a of Juillerat et al., Chem Biol 10:313-317, 2003). In a total reaction volume of 80 […]I, 0.2 µM GST-AGT are incubated with 1 µM substrate in 50 mM HEPES pH 7.2 and 1 mM DTT at room temperature. At several points of time an aliquot is quenched with 1 mM O^6-benzylguanine (Sigma) in SDS-Laemmli buffer and subjected to Western blotting analysis (neutravidin-peroxidase conjugate (PIERCE), Renaissance reagent plus (NEN)). The intensity of the corresponding bands is quantified by a Kodak Image Station 440.

[3] = Expression yield of soluble GST-AGT fusion protein; set-up: species or system E. coli; conditions: comparator not stated
Description: Expression yield is measured in E. coli or in any other of the standard production cells for genetically modified proteins, e.g. yeast, or preferably insect cells, CHO cells or HeLa cells. For quantifying expression yield, AGT fusion proteins may be chosen such that the fusion partner allows easy purification and quantification. For example, expression yield in E. coli is determined by measuring and comparing the yield of soluble and insoluble GST-wild type AGT fusion protein and GST-mutant AGT fusion protein from parallel E. coli expression cultures. Samples of the soluble fractions and insoluble fractions (i.e. the inclusion bodies) after cell lysis are subjected to SDS-PAGE, and the band staining intensities of the corresponding AGT fusion proteins are compared. Soluble protein is quantified after purification of the fusion protein from cell extracts by affinity chromatography (e.g. for GST-AGT fusion proteins by glutathione sepharose) by subjecting the purified fractions to a protein concentration assay (Bradford, Anal Biochem 72:248-54, 1976). The expression yield of similar proteins in the soluble fraction (difference in point mutations) can be used as a measure for protein stability in the unpurified as well as the purified state (Ohage et al., J Mol Biol 291:1119-1128, 1999; Wirtz et al., Protein Sci 8: 2245-50, 1999). Therefore, this is taken as a measure of folding stability and aggregation tendency.
Protein expression from this vector is carried out in E. coli strain BL21. An exponentially growing culture is induced with 0.5 mM IPTG, and the expression is carried out for 3.5 h at 24° C.
Purification: The harvested cells are resuspended in a buffer containing 50 mM phosphate, 0.5 M NaCl, 1 mM DTT, supplemented with 1 mM PMSF and 2 μg/ml aprotinin, and disrupted by lysozyme and sonification. The cell debris are separated by centrifugation at 40000×g. The extract is applied to pre-equilibrated glutathione sepharose (Amersham) which is then washed with 20 bed volumes (50 mM phosphate, 0.5 M NaCl, 1 mM DTT). The mutated GST-AGT fusion protein is eluted with 10 mM reduced glutathione in 50 mM Tris·HCl pH 7.9. The purified protein is dialyzed against 50 mM HEPES pH 7.2; 1 mM DTT; 30% glycerol and then stored at −80° C.
Determination of protein yield: Purity and relative amounts of the GST-AGT fusion proteins are compared by running samples on SDS-PAGE. UV spectra of the pure fractions are recorded using a Perkin Elmer Lambda 10. For protein samples containing no significant amount of DNA, the extinction at 280 nm as a measure of protein content is compared to that of wild type hAGT or PGEG-hAGT that were purified under the same conditions.

[4] = Competition of N^9-substituted and N^9-unsubstituted O^6-benzylguanine substrates; assay type: biochemical
Description: Such N^9-substituted O^6-alkylguanine substrates are the natural substrates of the wild type AGT. The ability of wild type AGT or mutant AGT to react with N^9-modified O^6-alkylguanine substrates is measured as the rate of its reaction with such substrates, e.g. with the low molecular weight N^9-cyclopentyl-O^6-benzylguanine in presence of biotinylated N^9-unsubstituted O^6-alkylguanine substrates in competition experiments. Subsequently, samples are subjected to Western blotting and detection with streptavidin derivates to obtain kinetic constants for these substrates. Alternatively, the reactivity towards such substrates is measured as the inhibition of the reaction of AGT with BG-Cy3. The reaction of AGT with BG-Cy3 is followed by an increase of Cy3 fluorescence intensity upon binding to AGT, after preincubation or in direct competition with the N^9-modified O^6-alkylguanine substrate.
Selected AGT mutants are subcloned into pGEX2T, expressed, purified and characterized as described in Example 1. Discrimination between N^9 substituted and N^9 unsubstituted O^6-benzylguanine substrates is evaluated by competition experiments for purified mutated GST-AGT in vitro with N^9-substituted and N′-unsubstituted O^6-benzylguanine. Aliquots of 0.2 μM GST-AGT are incubated with varying concentrations of N^9 substituted substrate (0, 0.5, up to 100 µM) and 0.5 µM biotinylated O^6-benzylguanine (BG-Bt, substance 3a of Juillerat et al., Chem Biol 10:313-317, 2003) in 50 mM HEPES pH 7.3 and 1 mM DTT at room temperature. After 45 min reactions are quenched by the addition of SDS-Laemmli buffer and heat denaturation. Samples are subjected to SDS-PAGE and Western blotting analysis (neutravidin-peroxidase conjugate (PIERCE), Renaissance reagent plus (NEN)). The intensity of the corresponding bands is quantified by a Kodak Image Station 440.

[5] = test system: oligonucleotide SEQ ID NO:2 (modified in position 14); assay: Reactivity against DNA-based substrates (BG-Cy3 assay with BG-modified oligonucleotide); assay type: biochemical; conditions: oligonucleotide SEQ ID NO:2 with O^6-benzyl at position 14; compared to PGEG-hAGT
Description: The ability of wild type AGT or mutant AGT to react with alkylated DNA substrates is measured as the reaction of its inactivation by a synthetic oligonucleotide containing O^6-benzylguanine (SEQ ID NO:2, modified in position 14). Subsequently, the reactions are quenched by incubation with biotinylated O^6-alkylguanine. Samples are subjected to Western blotting and detection with streptavidin derivates to obtain kinetic constants for these substrates. Alternatively, the ability of wild type or mutant AGT to react with alkylated DNA substrates is measured via its labeling efficiency in competition with a fluorescent substrate of AGT. The reaction kinetics of AGT with BG-Cy3 (O^6-benzylguanine coupled to Cy3) is followed by fluorescence intensity measurements at various concentrations of a competing synthetic oligonucleotide containing O^6-benzylguanine (SEQ ID NO:2, modified in position 14).
Reactivity against DNA-based substrates measured with a BG-Cy3 assay: BG-Cy3 is prepared by reacting the previously described O^6-(4-aminomethyl-benzyl)guanine (Keppler et al., NatureBiotechnol. 21:86-89, 2003) with the commercially available N-hydroxysuccinimide ester of Cy3, (Cy3-NHS, Amersham). The coupling reaction is performed at ambient temperature in N,N-dimethylformamide in the presence of 1 eq. of triethylamine. The BG-Cy3 conjugate is purified by reversed-phase HPLC on a C18-column by using linear gradients from 0.1% trifluoroacetic acid to acetonitrile. After solvent evaporation BG-Cy3 is dissolved in dimethyl sulfoxide and stored at −20° C. For measuring the reactivity with DNA-based substrates, a reaction mixture containing different concentrations (0 to 5 µM) of oligonucleotide SEQ ID NO:2 (modified in position 14), GST-AGT fusion protein at 0.2 µM and BG-Cy3 at […] in reaction buffer (50 mM HEPES, pH 7.2, 1 mM DTT, 200 mg/ml BSA) is incubated in microtiterplates. Fluorescence of the Cy3 derivative (excitation 519 nm, emission at 572 nm) is measured on a Spectramax Gemini plate reader (Molecular Devices).

Molecule | specificity of CPTG towards GST-hAGT [1] | activity towards O^6-benzylguanine substrates [2] | expression yield in E. coli [3] | reduced reactivity towards O^6-alkyl-N^9-deoxyribosylguanine or N^9-cyclopentyl-O^6-benzylguanine ([4]; comparator not stated) | reduction of reactivity towards O^6-alkyl-N^9-deoxyribosylguanine or N^9-cyclopentyl-O^6-benzylguanine ([4]; compared to PGEG-hAGT) | reduction of reactivity with oligonucleotides [5]
Nc1nc(OCc2cc(Br)cs2)c2ncn(C3CCCC3)c2n1 [CPTG, reference compound] | high specificity | – | – | – | – | –
B1 | – | at least twofold further increased activity; also recorded: increased reactivity | increased expression yield | substantially reduced reactivity | at least 10 fold | at least 1000 fold
B2 | – | retains activity | substantially increased expression yield | – | – | –
